Here are results for seven molecules from paper PMC11514449.

Series [1] concerns the target T1, Dmc1 (Saccharomyces cerevisiae) (UniProt P25453).
T1 sequence: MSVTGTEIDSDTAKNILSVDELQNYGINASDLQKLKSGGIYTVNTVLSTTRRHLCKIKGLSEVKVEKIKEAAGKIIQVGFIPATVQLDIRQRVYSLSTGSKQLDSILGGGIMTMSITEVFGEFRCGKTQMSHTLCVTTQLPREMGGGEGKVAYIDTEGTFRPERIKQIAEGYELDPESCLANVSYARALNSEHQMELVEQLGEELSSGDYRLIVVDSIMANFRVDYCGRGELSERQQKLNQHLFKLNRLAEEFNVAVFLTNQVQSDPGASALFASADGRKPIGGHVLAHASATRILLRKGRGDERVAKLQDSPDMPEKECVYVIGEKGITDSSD
The series can be described thus: smFRET, RPA displacement. To be noted: internal Cy3 between T12 and T18.

In series [2] the target is T2, Dmc1;Mei5-Sae3 complex (Saccharomyces cerevisiae;Saccharomyces cerevisiae) (UniProt P25453+P32489+P89114).
T2 sequence 1: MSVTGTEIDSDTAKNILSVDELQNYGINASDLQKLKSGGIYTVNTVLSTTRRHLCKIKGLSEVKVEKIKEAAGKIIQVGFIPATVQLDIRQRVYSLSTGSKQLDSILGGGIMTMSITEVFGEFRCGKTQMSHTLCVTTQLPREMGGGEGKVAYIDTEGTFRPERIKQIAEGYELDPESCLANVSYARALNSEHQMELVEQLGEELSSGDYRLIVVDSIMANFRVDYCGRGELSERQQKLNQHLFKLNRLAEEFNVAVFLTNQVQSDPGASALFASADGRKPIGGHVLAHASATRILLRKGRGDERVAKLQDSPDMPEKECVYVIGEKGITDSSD
T2 sequence 2: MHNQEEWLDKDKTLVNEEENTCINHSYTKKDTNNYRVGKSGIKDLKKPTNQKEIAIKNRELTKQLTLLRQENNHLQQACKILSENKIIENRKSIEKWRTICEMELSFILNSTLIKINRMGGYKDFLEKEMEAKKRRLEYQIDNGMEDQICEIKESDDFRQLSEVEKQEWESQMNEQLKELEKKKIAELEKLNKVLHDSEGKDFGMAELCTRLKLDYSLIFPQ
T2 sequence 3: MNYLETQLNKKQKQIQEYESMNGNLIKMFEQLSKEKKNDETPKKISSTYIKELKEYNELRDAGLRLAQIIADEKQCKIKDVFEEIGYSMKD
The series can be described thus: smFRET + GFP colocalization. Particulars: internal Cy3 between T12 and T21.

In series [3] the target is T3, Dmc1 (Saccharomyces cerevisiae, UniProt P25453 1-334).
T3 sequence: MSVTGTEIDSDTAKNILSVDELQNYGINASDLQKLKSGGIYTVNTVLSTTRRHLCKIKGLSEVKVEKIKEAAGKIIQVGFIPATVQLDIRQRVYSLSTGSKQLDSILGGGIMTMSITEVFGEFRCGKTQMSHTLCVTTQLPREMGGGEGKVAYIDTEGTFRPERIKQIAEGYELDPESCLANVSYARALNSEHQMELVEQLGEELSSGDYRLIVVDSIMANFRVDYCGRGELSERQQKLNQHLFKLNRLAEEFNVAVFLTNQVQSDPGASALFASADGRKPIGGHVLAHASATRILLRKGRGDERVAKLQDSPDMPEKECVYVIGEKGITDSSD
Nature of the series: smFRET.

Series [4] concerns the target T4, RPA (Saccharomyces cerevisiae, UniProt P22336;P26754;P26755 1-621;1-273;1-122). Nature of the series: EMSA.
The target of the next series is RPA-GFP (Rfa2-eGFP) (Saccharomyces cerevisiae, UniProt P22336;P26754;P26755 1-621;1-273;1-122). Nature of the series: EMSA.
Chain of RPA-GFP (Rfa2-eGFP) (P22336 whole entry, chain 1 of 3): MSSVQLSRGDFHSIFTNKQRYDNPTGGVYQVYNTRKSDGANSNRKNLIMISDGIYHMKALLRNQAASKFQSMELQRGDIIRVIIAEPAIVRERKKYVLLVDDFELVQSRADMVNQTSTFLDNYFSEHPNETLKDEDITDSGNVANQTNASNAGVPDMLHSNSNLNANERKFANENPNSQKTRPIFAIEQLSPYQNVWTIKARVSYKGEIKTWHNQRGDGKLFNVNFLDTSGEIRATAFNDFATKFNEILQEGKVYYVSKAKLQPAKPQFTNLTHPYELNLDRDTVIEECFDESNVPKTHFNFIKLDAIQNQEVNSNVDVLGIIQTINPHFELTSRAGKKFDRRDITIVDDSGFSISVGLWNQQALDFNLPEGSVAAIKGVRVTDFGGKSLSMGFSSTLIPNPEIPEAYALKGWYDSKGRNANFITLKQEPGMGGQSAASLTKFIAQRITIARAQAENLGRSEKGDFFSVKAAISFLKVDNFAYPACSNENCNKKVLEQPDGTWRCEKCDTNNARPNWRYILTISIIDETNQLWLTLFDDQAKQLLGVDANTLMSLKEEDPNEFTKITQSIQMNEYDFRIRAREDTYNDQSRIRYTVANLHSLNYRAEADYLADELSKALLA
Chain of RPA-GFP (Rfa2-eGFP) (P26754 whole entry, chain 2 of 3): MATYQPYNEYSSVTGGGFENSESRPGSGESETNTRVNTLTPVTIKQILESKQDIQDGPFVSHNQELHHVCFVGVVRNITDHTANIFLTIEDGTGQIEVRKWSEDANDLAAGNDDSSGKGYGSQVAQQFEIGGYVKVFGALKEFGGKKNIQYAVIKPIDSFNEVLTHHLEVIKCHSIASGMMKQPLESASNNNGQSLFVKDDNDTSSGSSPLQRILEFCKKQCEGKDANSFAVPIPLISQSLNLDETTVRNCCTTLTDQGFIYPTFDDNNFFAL
Chain of RPA-GFP (Rfa2-eGFP) (P26755 whole entry, chain 3 of 3): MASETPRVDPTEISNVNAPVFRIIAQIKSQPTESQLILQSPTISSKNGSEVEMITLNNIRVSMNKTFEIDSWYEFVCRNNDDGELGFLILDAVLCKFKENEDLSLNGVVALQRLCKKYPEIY
Series [5] concerns the target T3, Dmc1. The series can be described thus: smFRET. The source holds these as a separate data set.
The target of series [6] is T4, RPA. The series can be described thus: smFRET.
In series [7] the target is T5, Dmc1;Mei5-Sae3 complex (Saccharomyces cerevisiae;Saccharomyces …, UniProt P25453;P32489;P89114 1-334;1-222;1-91, |).
T5 sequence 1: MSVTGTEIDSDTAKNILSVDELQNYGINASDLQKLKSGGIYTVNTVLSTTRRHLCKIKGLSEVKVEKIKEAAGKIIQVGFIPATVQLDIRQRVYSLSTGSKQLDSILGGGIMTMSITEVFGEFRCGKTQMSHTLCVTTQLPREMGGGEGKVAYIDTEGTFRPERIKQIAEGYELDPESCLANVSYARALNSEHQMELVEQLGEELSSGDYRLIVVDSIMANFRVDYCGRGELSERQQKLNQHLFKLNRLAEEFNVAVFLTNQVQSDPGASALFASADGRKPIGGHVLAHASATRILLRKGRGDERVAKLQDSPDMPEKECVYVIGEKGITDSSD
T5 sequence 2: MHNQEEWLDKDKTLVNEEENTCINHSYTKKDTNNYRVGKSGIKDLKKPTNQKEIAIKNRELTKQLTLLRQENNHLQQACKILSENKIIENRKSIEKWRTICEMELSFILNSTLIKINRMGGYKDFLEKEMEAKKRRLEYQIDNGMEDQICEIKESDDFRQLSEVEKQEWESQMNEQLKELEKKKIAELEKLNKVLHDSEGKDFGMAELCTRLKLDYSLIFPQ
T5 sequence 3: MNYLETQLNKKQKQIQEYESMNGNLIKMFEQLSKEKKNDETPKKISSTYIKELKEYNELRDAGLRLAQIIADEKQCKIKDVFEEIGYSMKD
Nature of the series: smFRET.

The target of series [8] is T5, Dmc1;Mei5-Sae3 complex. Nature of the series: nuclease protection.

Where two headings read alike, the source gives them in different places.

T4 sequence (P22336 whole entry, chain 1 of 3): as the sequence (P22336 whole entry, chain 1 of 3) above
T4 sequence (P26754 whole entry, chain 2 of 3): as the sequence (P26754 whole entry, chain 2 of 3) above
T4 sequence (P26755 whole entry, chain 3 of 3): as the sequence (P26755 whole entry, chain 3 of 3) above

With “TGGCGACGGCAGCGAGGCTTTTTTTTTTTTTTTTTTTTTTTTTTTTTT / GCCTCGCTGCCGTCGCCA [dT12+18]”, in [1], the Kd worked out at 1900 nM.

With “TGGCGACGGCAGCGAGGCTTTTTTTTTTTTTTTTTTTTTTTTTTTTTTTTT / GCCTCGCTGCCGTCGCCA [dT12+21]”, the binding signal (% RPA displaced) in [2] was 50.

B1: dT7 (mixed)
DNA 1: TGGCGACGCAGCGAGGCTTTTTTT
DNA 2: GCCTCGCTGCCGTCGCCA
In the case of B1, in the series with Dmc1 [3], the Kd came to 1720 ± 77 nM.

B2: Oligo 4 (90-mer) (ssDNA)
DNA: AAATCAATCTAAAGTATATATGAGTAAACTTGGTCTGACAGTTACCAATGCTTAATCAGTGAGGCACCTATCTCAGCGATCTGTCTATTT
Consider B2, for which the binding result with RPA [4] and with RPA-GFP (Rfa2-eGFP) was “binds” throughout.

B3: dT9 (mixed)
DNA 1: TGGCGAGCAGCGAGGCTTTTTTTTT
DNA 2: GCCTCGCTGCCGTCGCCA
The molecule B3 gave a Kd with Dmc1 [5] of 1400 ± 39 nM. In addition, the binding result with RPA [6] is on record as “binds”.

B4: dT13 (mixed)
DNA 1: TGGCGACGGCAGCGAGGCTTTTTTTTTTTTT
DNA 2: GCCTCGCTGCCGTCGCCA
B4: the binding result in the series with Dmc1;Mei5-Sae3 complex [7] is reported as “binds”.

B5: Oligo 1 (80-mer) (ssDNA)
DNA: TTATGTTCATTTTTTATATCCTTTACTTTATTTTCTCTGTTTATTCATTTACTTATTTTGTATTATCCTTATCTTATTTA
Regarding B5, the binding result with Dmc1;Mei5-Sae3 complex [8] is reported as “binds”.
